Results taken from the supplement of paper PMC10126150.
± gives the standard deviation of the averaged measurements.

The sequences below were run on ATP (assay: switch fluorescence ratio, 500 uM ATP over buffer (Cy3 cluster intensity, sum of 5 cycles each) (fold (ratio)); higher = stronger signal-on switching upon ATP binding; sequences stand for … in TCGTCGGCAGCGTCAGATGTGTATAAGAGACAGTTTTTTTTTTTTTTTTTTTTTTTTT…TC). Details: aptamer strand: ATP DNA aptamer (quencher-CACCTGGGGGAGTATTGCGGAGGAAGG + anchor), 100 nM annealed; ATP concentration: 500 uM.
Summary of the method: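 Values give the fluorescence ratio for each switch-domain sequence, averaged from per-cluster ratios of summed target-cycle to summed buffer-cycle Cy3 intensity. The Cy3-labelled switching-strand clusters sat on a modified Illumina MiSeq flow-cell, were annealed to 100 nM quencher-labelled ATP aptamer, and were imaged in selection buffer, then after 15 min with 500 uM ATP at 22 °C. Five cycles ran with NaOH stripping and re-annealing between them, and clusters outside 100-1000 RFU were excluded.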
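Note: ATP exposure 15 min at 22 °C before imaging.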

Row | Sequence | switch fluorescence ratio
1 | TGTCAGTTTC | 0.987 ± 0.018
2 | GACCCTAGAT | 1.008 ± 0.0036
3 | TAATTTAAGG | 0.993 ± 0.039
4 | GTAGGGGGAC | 1.05 ± 0.099
5 | TGGTTTTAAG | 0.98 ± 0.024
6 | GGGACAGACC | 1.09 ± 0.024
7 | GAGAGACAGG | 1.014 ± 0.0095
8 | ATCGCTTAAG | 0.991 ± 0.035
9 | TTTATGAAAA | 1.025 ± 0.0066
10 | CGAGCCCTTG | 1.027 ± 0.0065
11 | CCAGGCGGGG | 0.9969 ± 0.0046
12 | AATGGGCTGA | 0.971 ± 0.015
13 | GCCATATGTG | 1.02 ± 0.015
14 | GGGAGGGTTC | 1.01 ± 0.083
15 | AGACGGAAAG | 0.982 ± 0.015
16 | TATCAGAGGA | 1.04 ± 0.013
17 | TTATTAAAAT | 0.997 ± 0.021
18 | GCGGTTGCCA | 0.982 ± 0.033
19 | ATTTTAGATG | 1 ± 0.025
20 | GGGTAGGAAG | 0.971 ± 0.024
21 | GAGGGAGGTC | 0.968 ± 0.043
22 | AGAAGGGAGG | 0.987 ± 0.011
23 | TTTGACTAAG | 1.06 ± 0.099
24 | AAAAAAGTGG | 1.02 ± 0.026
25 | AGGGTTATTA | 0.9786 ± 0.0025

Row | Sequence | switch fluorescence ratio
26 | CGCATGTACG | 1.14 ± 0.16
27 | TGTAATGGTT | 1.004 ± 0.01
28 | TAGTACTTTA | 1.046 ± 0.0071
29 | GGACTGGGCT | 0.9806 ± 0.0081
30 | TATGTCCGCT | 1.05 ± 0.058
31 | TAATCAGAGG | 0.994 ± 0.019
32 | CGGGGGTAG | 0.9982 ± 0.0021
33 | CAACATGTTT | 1.02 ± 0.03
34 | AGGGCTGTGT | 0.999 ± 0.046
35 | ATTGTTACAG | 1.01 ± 0.016
36 | GGGGGGCAGG | 1.03 ± 0.039
37 | CACGGCTATG | 1.06 ± 0.046
38 | AACAGAGTTT | 1.02 ± 0.026
39 | TCAATGTTTT | 0.9846 ± 0.0031
40 | ACGCCCTCCC | 2.02 ± 1.2
41 | GCTGTCAATC | 1.11 ± 0.053
42 | GAGATCAGTT | 0.9808 ± 0.0058
43 | TTCACAGCCA | 1.09 ± 0.043
44 | CAGGAGGATC | 1.027 ± 0.0074
45 | TGTAGCAGCT | 1.12 ± 0.045
46 | TCAGGTTTTT | 1.13 ± 0.22
47 | TAATGTGTGG | 0.9885 ± 0.0094
48 | TCCTTTATTG | 1.01 ± 0.021
49 | CATGGATACG | 1.01 ± 0.021
50 | GGGGGGACCG | 0.987 ± 0.032

Row | Sequence | switch fluorescence ratio
51 | AATGAGTCAA | 1 ± 0.021
52 | GGTTTGAGTA | 1.02 ± 0.074
53 | AGTGGTGAGG | 0.983 ± 0.016
54 | GTGGAGGGTT | 1.03 ± 0.04
55 | CCAGCAGGTA | 1.13 ± 0.064
56 | ATTTGAGCGT | 1.02 ± 0.014
57 | GGACTAGGAA | 1.01 ± 0.026
58 | CCGGAGAGGG | 1.7 ± 0.61
59 | AGGAGGTTAT | 1.01 ± 0.013
60 | AAAGGGCATC | 1.01 ± 0.058
61 | GGGTTTAATT | 0.999 ± 0.011
62 | TTTTGTTCTT | 0.984 ± 0.012
63 | CCTGGGGGCC | 1 ± 0.013
64 | ATACGACGTG | 1.004 ± 0.0083
65 | TTAAGTTTTG | 1.016 ± 0.0078
66 | ATATGGTGGG | 1.01 ± 0.025
67 | GATTGCGAGG | 0.9887 ± 0.0059
68 | TGTTTTTTGC | 0.995 ± 0.056
69 | GGTATGTAAG | 0.995 ± 0.02
70 | AGTCGGGATG | 0.963 ± 0.035
71 | ACACTCGTCT | 1.009 ± 0.0051
72 | TTTGCATTCT | 1.004 ± 0.0078
73 | TTTAAGCTAA | 1.13 ± 0.23
74 | TTCCTGAAAA | 0.981 ± 0.016
75 | GAATGGCTGG | 0.962 ± 0.0099

Row | Sequence | switch fluorescence ratio
76 | TTGAGTGTGC | 1.02 ± 0.023
77 | GGTTTCCGCC | 1.169 ± 0.0023
78 | GGCGTTCATG | 0.9968 ± 0.0081
79 | ATCGTCCCGA | 1.05 ± 0.039
80 | TTGGTCGCTG | 1.01 ± 0.011
81 | CGATGTAGGT | 1.02 ± 0.025
82 | TAGGGAGGTG | 1.04 ± 0.053
83 | TTTTCCTGAC | 1.64 ± 0.25
84 | TGAAGCAGGG | 1.13 ± 0.018
85 | TCGGGTCTAC | 1.01 ± 0.018
86 | CATTGAGGTT | 0.979 ± 0.02
87 | CGTGGATACT | 1.23 ± 0.057
88 | TCACGGCTGG | 0.971 ± 0.029
89 | TCGCTTATCG | 1.02 ± 0.072
90 | TGGGGCGCTG | 0.981 ± 0.011
91 | AGTGCGGGGC | 1.07 ± 0.013
92 | TTGAGGACGT | 0.975 ± 0.045
93 | TTTATGAGG | 0.997 ± 0.019
94 | CTTCACCAAC | 1.19 ± 0.013
95 | GTTAGCAAGG | 1.08 ± 0.018
96 | TTATTTAAAG | 1.018 ± 0.0024
97 | AGATCCCGCG | 1.03 ± 0.032
98 | GTTTGCCCTT | 1.06 ± 0.1
99 | GGGGTAAAGT | 1.01 ± 0.028
100 | TTACATATGA | 1.04 ± 0.016
